# Measured values: paper PMC2891831, “Insight into the Mechanisms of Adenovirus Capsid Disassembly from Studies of Defensin Neutralization” (PLoS Pathogens, 2010)
# Entries after “also recorded” stand apart in the source; their conditions may differ.
# Experiments:
# [1] = tested on: binding of HAdV-5 to A549 cells (CAR receptor); assay: Fiber knob competition assay: binding of labeled HAdV-5 to cells; type: cell-based, human
# Protocol: Figure 3 HD5 antiviral activity is structure dependent. A) Ribbon representation of HD5 (PDB 1ZMP). Three disulfide bonds are numbered, and the two residues comprising the conserved salt bridge (R6 and E14) are indicated. B) Ad5.eGFP was incubated with 15 µM of each of the indicated defensins. HD5-Abu is HD5 with the six cysteines replaced with L-α-aminobutyric acid. Data are the mean percent of eGFP positive cells compared to control cells infected in the absence of defensin for at least three independent experiments ± SD. C) Binding of Alexa Fluor 488-labeled HAdV-5 to cells was assessed after incubation with or without 20 µM HD5 or HD5-Abu and in competition with 100 nM 5FK or 16 FK. Data are the mean fold increase in geometric mean fluorescence compared to cells alone and are of at least 10,000 cells from each of three independent experiments ± SD.
# In order to determine the receptor-dependence of this effect, we pre-incubated cells with recombinant fiber knob from HAdV-5 (5FK) to block receptor (CAR) interactions and measured cell binding of fluorescently labeled HAdV-5 that was pre-incubated with or without HD5 or HD5-Abu (Figure 3C). Cells incubated with fiber knob from HAdV-16 (16FK), which binds CD46, served as a control. We observed that virus binding to cells was reduced 5.2-fold in the presence of 5FK compared to 16FK. […]
# HAdV-5 = conditions: ref [13], cited from earlier work
molecule,measurement,setting,value
"HD5: human alpha-defensin; synthetic, obtained from Peptides International; three disulfide bonds (PDB 1ZMP) (peptide, UniProt Q01523 20-94, looked up, Defensin-5) Defensin alpha 5: ESLQERADEATTQKQSGEDNQDLAISFAGNGLSALRTSGSQARATCYCRTGRCATRESLSGVCEISGRLYRLCCR",interaction with CAR receptor in presence of HD5,"[1]; 20 µM HD5, competition with 5FK",does not completely block the interaction with CAR receptor; also recorded: capacity of fiber to bind to CAR was not compromised by HD5 binding
same,effect on virus binding to cells,"[1]; virus pre-incubated with 20 µM HD5 or HD5-Abu, Alexa Fluor 488, fold increase in geometric mean fluorescence, three independent experiments",increased virus binding to cells; also recorded: enhanced by HD5
same,inhibition of HAdV-5 infection,HAdV-5; low micromolar concentrations,significantly inhibit HAdV-5 infection at low micromolar concentrations
same,productive infection by HAdV-5,HAdV-5,almost complete block to productive infection
same,IC50,HAdV-5; read-out: IC50 for HAdV-5 infection,3 to 4 µM
